The assay addresses HIS-SFTSV-NP抗原 (recombinant SFTSV NP antigen expressed in E. coli BL21(DE3) from pET-30a) (新布尼亚病毒 (SFTSV)). Briefly: indirect ELISA, NP antigen coated. On the technique in general: An ELISA detects its analyte on a solid surface through an enzyme-linked reagent.

B1: 单克隆抗体anti-SFTSV-NP-mab1 (antibody, V domains shown)
VH: EVQLEESGGGLVQPGGSRKLSCAVSGFTFSNFGIHWVRQAPEKGLEWVAYISSGGTTIYYADTVKGRFTISRDNPMNTLFLQMTSLRSEDTAMYHCARSDYFGMMDYWGQGTSVTVSS
VL: DIVITQTPSSLSASLGDRVTISCRASQDIRNYLNWYQQKPDGTVKLLVYYTSRLHSGVPSRFSGSGSGTDFSLTISNLEQEDIATYFCQQAHTLLTFGAGTKLEIK
On to B1, for which the 工作浓度 is 15.6 ng/mL and the 检测限 (of NP protein) turned out to be 1.95 ng/mL.
